pKd: −log10 of the molar value. Blank lines part the entries; values can stand above or below the substance they belong to.
What was measured:
[1] = target: human IFNAR1, membrane receptor on cells (U266 human myeloma cells; Hela and A549 cells in the functional assays) (human) (UniProt P17181); assay: cell-based or functional assay
[2] = target: human IFNAR1, membrane receptor on cells (U266 human myeloma cells; Hela and A549 cells in the functional assays) (human) (UniProt P17181); assay: flow cytometry on U266 cells, fluoresceinated mAb 1 µg/100 µl, no soluble hIFNAR1
[3] = target: human IFNAR1, membrane receptor on cells (U266 human myeloma cells; Hela and A549 cells in the functional assays) (human) (UniProt P17181); assay: flow cytometry on U266 cells, F-mAb preincubated with competitor: 10 µg soluble wild type hIFNAR1-IgG
[4] = target: hIFNAR1 ECD-IgG fusion protein (immunoadhesin, pRK5 hIFNAR1-IgG clone 53.65), wild type (human); assay: competitive radioimmunoprecipitation with 125I-hIFNAR1-IgG and unlabeled hIFNAR1-IgG, Scatchard analysis
[5] = target: IFNAR1-IgG multiple alanine mutant 1, residues 19-25 (RWNRSDE to AWNASAA) (human); assay: capture ELISA, mutant IFNAR1-IgG captured by goat anti-hIgG-Fc, mAb 10 µg/ml; OD as % of wild type IFNAR1-IgG
[6] = target: IFNAR1-IgG multiple alanine mutant 10, residues 383-388 (DEKLNK to AAALNA) (human); assay: as above
[7] = target: IFNAR1-IgG multiple alanine mutant 2, residues 69-74 (EEIKLR to AAIALA) (human); assay: as above
[8] = target: IFNAR1-IgG multiple alanine mutant 3, residues 76-80 (RAEKE to AAAAA) (human); assay: as above
[9] = target: IFNAR1-IgG multiple alanine mutant 4, residues 103-111 (… to …) (human); assay: as above
[10] = target: IFNAR1-IgG multiple alanine mutant 5, residues 148-152 (EERIE to AAAIA) (human); assay: as above
[11] = target: IFNAR1-IgG multiple alanine mutant 6, residues 157-162 (RHKIYK to AAAIYA) (human); assay: as above
[12] = target: IFNAR1-IgG multiple alanine mutant 7, residues 244-249 (HLYKWK to ALYAWA) (human); assay: as above
[13] = target: IFNAR1-IgG multiple alanine mutant 8, residues 291-298 (EEIKFDTE to AAIAFATA) (human); assay: as above
[14] = target: IFNAR1-IgG multiple alanine mutant 9, residues 352-359 (ERKIIEKK to AAAIIAAA) (human); assay: as above
[15] = target: IFNAR1-IgG single alanine mutant D296A (human); assay: capture ELISA, single alanine mutant IFNAR1-IgG captured by goat anti-hIgG-Fc; OD as % of wild type IFNAR1-IgG
[16] = target: IFNAR1-IgG single alanine mutant E291A (human); assay: as above
[17] = target: IFNAR1-IgG single alanine mutant E292A (human); assay: as above
[18] = target: IFNAR1-IgG single alanine mutant E298A (human); assay: as above
[19] = target: IFNAR1-IgG single alanine mutant E69A (human); assay: as above
[20] = target: IFNAR1-IgG single alanine mutant E70A (human); assay: as above
[21] = target: IFNAR1-IgG single alanine mutant H244A (human); assay: as above
[22] = target: IFNAR1-IgG single alanine mutant K247A (human); assay: as above
[23] = target: IFNAR1-IgG single alanine mutant K249A (human); assay: as above
[24] = target: IFNAR1-IgG single alanine mutant K294A (human); assay: as above
[25] = target: IFNAR1-IgG single alanine mutant K72A (human); assay: as above
[26] = target: IFNAR1-IgG single alanine mutant R74A (human); assay: as above
[27] = target: human IFNAR1, membrane receptor on cells (U266 human myeloma cells; Hela and A549 cells in the functional assays) (human) (UniProt P17181); assay: flow cytometry on U266 cells, F-mAb preincubated with competitor: 10 µg soluble hIFNAR1-IgG Mutant #7 (244-249)
[28] = target: human IFNAR1, membrane receptor on cells (U266 human myeloma cells; Hela and A549 cells in the functional assays) (human) (UniProt P17181); assay: flow cytometry on U266 cells, F-mAb preincubated with competitor: 10 µg soluble hIFNAR1-IgG Mutant #8 (291-298)
[29] = target: human IFNAR1, membrane receptor on cells (U266 human myeloma cells; Hela and A549 cells in the functional assays) (human) (UniProt P17181); assay: flow cytometry on U266 cells, fluoresceinated control IgG, no soluble hIFNAR1

UniProt P17181, sequence (P17181 28-557): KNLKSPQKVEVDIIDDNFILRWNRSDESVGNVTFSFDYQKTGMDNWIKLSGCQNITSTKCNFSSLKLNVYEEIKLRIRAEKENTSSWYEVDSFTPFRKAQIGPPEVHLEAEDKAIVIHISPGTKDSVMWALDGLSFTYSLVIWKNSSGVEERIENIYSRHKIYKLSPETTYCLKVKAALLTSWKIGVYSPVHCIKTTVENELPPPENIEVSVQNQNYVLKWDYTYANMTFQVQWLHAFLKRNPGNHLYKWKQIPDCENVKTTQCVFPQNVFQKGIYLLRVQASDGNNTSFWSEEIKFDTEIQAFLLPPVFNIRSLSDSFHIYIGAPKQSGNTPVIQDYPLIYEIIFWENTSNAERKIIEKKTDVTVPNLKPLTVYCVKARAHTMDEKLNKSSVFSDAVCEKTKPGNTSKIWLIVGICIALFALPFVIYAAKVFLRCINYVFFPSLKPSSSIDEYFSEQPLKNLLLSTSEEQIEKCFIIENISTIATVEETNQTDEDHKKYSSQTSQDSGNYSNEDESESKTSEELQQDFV
IFNAR1-IgG multiple alanine mutant 1, residues 19-25 (RWNRSDE to AWNASAA) (human), sequence (chain, as listed by the source mutant limits assumed): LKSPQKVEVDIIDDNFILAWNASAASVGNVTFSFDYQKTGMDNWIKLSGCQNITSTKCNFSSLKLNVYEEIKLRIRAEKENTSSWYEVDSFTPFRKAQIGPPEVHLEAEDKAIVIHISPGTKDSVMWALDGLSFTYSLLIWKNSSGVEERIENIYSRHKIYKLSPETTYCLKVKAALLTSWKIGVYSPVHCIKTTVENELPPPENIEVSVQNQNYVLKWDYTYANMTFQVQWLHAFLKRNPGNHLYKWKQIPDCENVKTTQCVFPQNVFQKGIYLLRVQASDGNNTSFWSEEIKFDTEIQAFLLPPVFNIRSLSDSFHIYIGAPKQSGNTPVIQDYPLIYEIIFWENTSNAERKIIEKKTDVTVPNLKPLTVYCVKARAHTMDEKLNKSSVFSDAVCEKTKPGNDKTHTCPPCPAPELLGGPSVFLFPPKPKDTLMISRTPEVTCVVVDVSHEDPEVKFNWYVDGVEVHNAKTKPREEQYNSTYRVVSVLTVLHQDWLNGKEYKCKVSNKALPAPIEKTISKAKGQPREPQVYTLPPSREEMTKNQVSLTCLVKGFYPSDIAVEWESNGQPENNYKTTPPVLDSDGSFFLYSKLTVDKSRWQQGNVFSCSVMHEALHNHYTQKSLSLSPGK
IFNAR1-IgG single alanine mutant K247A (human), sequence (chain, as listed by the source K247A K247A limits assumed): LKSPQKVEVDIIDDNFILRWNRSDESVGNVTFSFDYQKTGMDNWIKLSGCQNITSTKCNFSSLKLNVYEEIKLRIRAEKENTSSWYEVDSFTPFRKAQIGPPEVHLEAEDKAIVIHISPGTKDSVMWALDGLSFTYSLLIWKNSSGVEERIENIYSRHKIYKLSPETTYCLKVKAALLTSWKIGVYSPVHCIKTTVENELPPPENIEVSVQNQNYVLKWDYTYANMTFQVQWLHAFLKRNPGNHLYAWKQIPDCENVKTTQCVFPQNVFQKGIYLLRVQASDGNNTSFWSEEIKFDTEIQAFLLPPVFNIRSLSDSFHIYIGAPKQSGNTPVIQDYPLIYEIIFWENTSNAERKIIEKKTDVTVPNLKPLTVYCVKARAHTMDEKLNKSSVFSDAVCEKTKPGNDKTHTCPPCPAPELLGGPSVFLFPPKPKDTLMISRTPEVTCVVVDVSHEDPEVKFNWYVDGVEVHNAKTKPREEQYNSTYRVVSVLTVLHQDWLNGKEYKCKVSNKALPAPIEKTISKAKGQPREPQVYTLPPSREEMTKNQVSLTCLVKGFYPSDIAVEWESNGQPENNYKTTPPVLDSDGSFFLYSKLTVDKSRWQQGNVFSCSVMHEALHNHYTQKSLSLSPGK
IFNAR1-IgG multiple alanine mutant 6, residues 157-162 (RHKIYK to AAAIYA) (human), sequence (chain, as listed by the source mutant limits assumed): as the sequence (chain, as listed by the source K247A K247A limits assumed) above, with R157A, H158A, K159A, K162A, A247K counted along it
IFNAR1-IgG single alanine mutant H244A (human), sequence (chain, as listed by the source H244A H244A limits assumed): as the sequence (chain, as listed by the source K247A K247A limits assumed) above, with H244A, A247K counted along it
IFNAR1-IgG multiple alanine mutant 4, residues 103-111 (… to …) (human), sequence (chain, as listed by the source mutant limits assumed): as the sequence (chain, as listed by the source K247A K247A limits assumed) above, with E103A, H105A, E107A, E109A, D110A, K111A, A247K counted along it
IFNAR1-IgG multiple alanine mutant 7, residues 244-249 (HLYKWK to ALYAWA) (human), sequence (chain, as listed by the source mutant limits assumed): as the sequence (chain, as listed by the source K247A K247A limits assumed) above, with H244A, K249A counted along it
IFNAR1-IgG multiple alanine mutant 3, residues 76-80 (RAEKE to AAAAA) (human), sequence (chain, as listed by the source mutant limits assumed): as the sequence (chain, as listed by the source K247A K247A limits assumed) above, with R76A, E78A, K79A, E80A, A247K counted along it

EC50 of mAb neutralizing the anti-viral cytopathic effect of 10 units/ml IFNα1 on A549 cells (EMC virus) [1]: 10 µg/mL | EC50 of mAb neutralizing the anti-viral cytopathic effect of 10 units/ml IFNα2/1 on A549 cells (EMC virus) [1]: 20 µg/mL | EC50 of mAb neutralizing the anti-viral cytopathic effect of 10 units/ml IFNα2 on A549 cells (EMC virus) [1]: 10 µg/mL | EC50 of mAb neutralizing the anti-viral cytopathic effect of 10 units/ml IFNα5 on A549 cells (EMC virus) [1]: 6 µg/mL | EC50 of mAb neutralizing the anti-viral cytopathic effect of 10 units/ml IFNα8 on A549 cells (EMC virus) [1]: 3 µg/mL | EC50 of mAb neutralizing the anti-viral cytopathic effect of 10 units/ml IFNβ on A549 cells (EMC virus) [1]: > 30 µg/mL | Mean Fluorescence Intensity [2]: 9.49 | Mean Fluorescence Intensity [3]: 2.45 | pKd [4]: 10.28 | % Wild type binding of mAbs [5]: 95% | % Wild type binding of mAbs [6]: 103% | % Wild type binding of mAbs [7]: 0% | % Wild type binding of mAbs [8]: 92% | % Wild type binding of mAbs [9]: 80% | % Wild type binding of mAbs [10]: 90% | % Wild type binding of mAbs [11]: 100% | % Wild type binding of mAbs [12]: 106% | % Wild type binding of mAbs [13]: 96% | % Wild type binding of mAbs [14]: 101% | % Wild type binding of mAbs [15]: 53% | % Wild type binding of mAbs [16]: 58% | % Wild type binding of mAbs [17]: 58% | % Wild type binding of mAbs [18]: 60% | % Wild type binding of mAbs [19]: 69% | % Wild type binding of mAbs [20]: 85% | % Wild type binding of mAbs [21]: 96% | % Wild type binding of mAbs [22]: 86% | % Wild type binding of mAbs [23]: 73% | % Wild type binding of mAbs [24]: 69% | % Wild type binding of mAbs [25]: 91% | % Wild type binding of mAbs [26]: 30% | Mean Fluorescence Intensity [27]: 2.95 | Mean Fluorescence Intensity [28]: 3.16
Substance: anti-hIFNAR1 monoclonal antibody 4A7 (hybridoma ATCC HB 12132)

Mean Fluorescence Intensity [29]: 2.99
Substance: control IgG (antibody)
